The source of these data is doi:10.1101/221747.

pKd: −log10 of the molar value.

Experiment [1] deals with Med15 activator-binding domain 2 (ABD2; residues 277–368) (yeast) (UniProt P19659). Put plainly: ITC + fluorescence polarisation. (In fluorescence polarisation assays a small probe gives low polarisation when free and higher when bound to something large.)
Experiment [2] addresses Med15 158–651 Δ239–272, Δ373–483 (ABD123) (yeast) (UniProt P19659). The experiment can be described thus: fluorescence polarisation.
Experiment [3] concerns the target Med15 1–651 Δ239–272, Δ373–483 (KIX123) (yeast) (UniProt P19659). Put plainly: fluorescence polarisation.

For “Gcn4 central activation domain (cAD; residues 101–134) (from UniProt P03069 101-134) (domain or fragment)”, the pKd (as a rule, the Kd on a negative log10 scale, so that one unit is a factor of ten) in experiment [1] was 3.82.

Substance “Gcn4 tandem activation domains (tAD; residues 1–134) (from UniProt P03069 1-134) (domain or fragment)” came in with a fold higher affinity than the strongest piecemeal interaction in experiment [2] of 20 fold. This substance returned an increase of affinity over ABD123 in experiment [3] of 30%.
